Test results reported in publication PMC2364164.

Molecular target: recombinant fusion protein of MVP and glutathione-S-transferase (GST-MVP) (human) (UniProt Q14764)
Experiment: SPR; BIAcore 2000; GST-MVP immobilised on CM-5 sensorchip (2000 resonance units); soluble Fab flowed at 25 μl per minute, room temperature, HBS-EP (0.01 M HEPES pH 7.4, 0.15 M NaCl, 3 mM EDTA, 0.005% polysorbate 20); dissociation rates only

Chain of UniProt Q14764 (Q14764 whole entry, the tested form may be a part): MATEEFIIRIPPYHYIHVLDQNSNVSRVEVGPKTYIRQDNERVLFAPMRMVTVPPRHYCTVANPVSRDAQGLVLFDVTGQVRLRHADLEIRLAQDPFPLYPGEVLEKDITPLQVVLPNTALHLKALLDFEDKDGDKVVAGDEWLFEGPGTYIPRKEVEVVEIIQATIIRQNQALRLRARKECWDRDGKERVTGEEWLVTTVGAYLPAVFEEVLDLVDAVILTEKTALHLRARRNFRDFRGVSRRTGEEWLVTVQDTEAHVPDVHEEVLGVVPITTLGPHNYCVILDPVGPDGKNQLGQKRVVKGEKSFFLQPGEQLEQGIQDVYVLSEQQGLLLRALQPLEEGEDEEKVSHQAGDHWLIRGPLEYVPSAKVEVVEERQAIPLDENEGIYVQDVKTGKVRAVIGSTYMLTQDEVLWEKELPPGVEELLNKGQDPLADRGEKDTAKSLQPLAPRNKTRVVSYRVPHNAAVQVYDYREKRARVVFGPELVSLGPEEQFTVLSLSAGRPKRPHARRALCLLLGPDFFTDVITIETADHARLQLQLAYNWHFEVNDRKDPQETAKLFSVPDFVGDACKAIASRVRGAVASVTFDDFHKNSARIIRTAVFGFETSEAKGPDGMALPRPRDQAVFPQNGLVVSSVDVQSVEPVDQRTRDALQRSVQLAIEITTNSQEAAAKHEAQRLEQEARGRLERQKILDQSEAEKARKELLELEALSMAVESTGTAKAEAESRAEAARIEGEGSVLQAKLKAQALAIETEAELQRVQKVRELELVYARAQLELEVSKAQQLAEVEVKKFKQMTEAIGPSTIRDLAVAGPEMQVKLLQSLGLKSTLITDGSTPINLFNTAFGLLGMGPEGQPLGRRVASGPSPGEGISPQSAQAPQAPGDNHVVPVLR

B1: MVP-φ4 human Fab fragment (soluble) (Fab, V domains shown)
VH: QLQLQESGPGLVKPSETLSLTCSVSGGSISSGGYYWSWIRQRPGKGLEWIGYIYYSGSTTYNPSLKSRVTMSVDTSKNQFSLKLSSVTAADTAFYYCARQGVYYYYGMDVWGQGTTVTVSS
VL: NFMLTQPHSVSESPGKTITISCTRSSGSIGSNYVYWYQQRPDSSPTIVIYADNERPSGVPGRFSGSIDSSSNSASLTISGLRAEDEADYYCQSYSNNKWIFGGGTKVTVL
- koff: 0.0013 s⁻¹
